Assay results taken from publication PMC9643530.
“And” between values parts separate entries of the source, which are not always exact repeats. Equal values may be shown once. Read-outs that look alike come from different tables or passages of the source.

Columns and labels:
[1] = molecular target: recombinant secreted NS1 (sNS1) of DENV2 clinical strain PVP94/07 with C-terminal His6-tag (dengue virus 2 (clinical strain PVP94/07)); assay: cross-linking
[2] = molecular target: recombinant secreted NS1 (sNS1) of DENV2 clinical strain PVP94/07 with C-terminal His6-tag (dengue virus 2 (clinical strain PVP94/07)); assay: cryo-EM structure; recombinant sNS1 complexed with Fab 5E3, molar ratio 1:1.2, final sNS1 0.25 mg/mL
[3] = molecular target: recombinant secreted NS1 (sNS1) of DENV2 clinical strain PVP94/07 with C-terminal His6-tag (dengue virus 2 (clinical strain PVP94/07)); assay: AUC; sedimentation velocity, 72,446 x g, 20 °C, 1 mg/ml protein in NTE buffer, SEDFIT continuous c(s) distribution
[4] = molecular target: recombinant secreted NS1 (sNS1) of DENV2 clinical strain PVP94/07 with C-terminal His6-tag (dengue virus 2 (clinical strain PVP94/07)); assay: cryo-EM structure; recombinant sNS1 alone, 0.25 mg/mL; 2D and 3D classification (Relion, CryoSPARC); also imaged with 0.05% DDM
[5] = molecular target: sNS1 from the supernatant of DENV2 PVP94/07 infected cells (dengue virus 2 (clinical strain PVP94/07)); assay: cross-linking
[6] = molecular target: sNS1 from the supernatant of DENV2 PVP94/07 infected cells (dengue virus 2 (clinical strain PVP94/07)); assay: cross-linking; remark: listed apart in the source

Substance	stoichiometry N [1]	stoichiometry N [2]	stoichiometry N [3]	stoichiometry N [4]	stoichiometry N [5]	stoichiometry N [6]
recombinant secreted NS1 (sNS1) of DENV2 clinical strain PVP94/07 with C-terminal His6-tag (natural protein)	6 and 4 and 2	2 and 4	4 and 6	6 and 4	–	–
sNS1 from the supernatant of DENV2 PVP94/07 infected cells (natural protein)	–	–	–	–	4 and 2	6
